Literature values as cited in patent publication US9168216B2, “Carrier comprising one or more di and/or mono-(electron transfer agent) phosphate derivatives or complexes thereof” (priority 2005, dated 2015).

Details: subcutaneous, 25 μg/kg body weight

PTH: human parathyroid hormone (fragment 1-34)
Time of peak PTH level in rat plasma after injection: 40 to 60 min | Time to complete turnover of PTH in plasma: ≤ 4 h
